Patent US20160075781A1 (IMMUNOGEN, published 2016)
Residue numbers refer to the chain shown, from its start.

B1: huMov19 (antibody, V domains shown)
VH: QVQLVQSGAEVVKPGASVKISCKASGYTFTGYFMNWVKQSPGQSLEWIGRIHPYDGDTFYNQKFQGKATLTVDKSSNTAHMELLSLTSEDFAVYYCTRYDGSRAMDYWGQGTTVTVSS
VL: DIVLTQSPLSLAVSLGQPAIISCKASQSVSFAGTSLMHWYHQKPGQQPRLLIYRASNLEAGVPDRFSGSGSKTDFTLNISPVEAEDAATYYCQQSREYPYTFGGGTKLEIKR
notes: Resurfaced humanized Mov19, full IgG1/kappa; also called humanized Mov19
B2: muFR1-9 (antibody, V domains shown)
VH: QVQLVESGGGLVQPGGSRKLSCAASGFTFSSFGMHWVRQAPEKGLEWVAYISSGSSTFYYADTVKGRFTISRDNPKNTLFLQMTSLRSEDTAMYYCAKELTGTFAYWGQGTLVTVSA
VL: DIVLTQSPATLSVTPGDSVSLSCRASQSINNNLHWYQQKSHESPRLLIKYASQSISGIPSRFSGSGSGTDFTLSINSVETEDFGMYFCQQSNSWPQVTFGAGTKLELKR
B3: muFR1-21 (antibody, mouse IgG2b, kappa, V domains shown)
VH: EVKLVESGGDLVKPGGSLKLSCAASGFTFSSYGMSWVRQTPDKRLECVATISSGGSYTYYPDGVKGRFTISRDNAKNTLYLQMSSLKSEDTAMYYCARDGEGGLYAMDYWGQGTSVTVSS
VL: DIQMTQSSSYLSVSLGGRVTITCKASDHINNWLAWYQQKPGNAPRLLISGATSLETGVPSRFSGSGSGKDYTLSISSLQTEDVATYYCQQYWSTPFTFGSGTKLEIKR
notes: murine anti-FOLR1 antibody; also called murine FR1-21
B4: huFR1-21 (antibody, human IgG1, kappa, V domains shown)
VH: EVQLVESGGDVVKPGGSLKLSCAASGFTFSSYGMSWVRQTPGKGLECVATISSGGSYTYYSPGFQGRFTISRDKSKNTLYLQMSSLKAEDTAMYYCARDGEGGLYAMDYWGQGTSVTVSS
VL: B3 VL with Y10S, L15V, N42K, R45K, T80P, S100Q
notes: unconjugated humanized FR1-21; also called humanized FR1-21
B5: muFR1-13 (antibody, V domains shown)
VH: QVQLKESGPDLVAPSQSLSITCTVSGFSLSRYSVHWIRQPPGKGLEWLGMIWSGGNTDYNSVFKSRLNITKDNSKSQVFLKMNSLQTDDTAIYYCATFDGKVSWFAYWGQGTLVTVSA
VL: SIVMTQTPKFLLVSTGDRFTITCKASQSVSNDVLWYQQKPGQSPKLLIYYAYNRYSGVPDRFTGSGYGTDFTFTITTVQSEDLAVYFCQQDHSSPFTFGSGTKLEIKR
B6: huMov19-PEG4-mal-DM4 (antibody, V domains shown)
VH: B1 VH
VL: B1 VL
modifications: maytansinoid DM4 attached through the PEG4-mal linker; residues and chain not stated
B7: muFR1-21 PEG4-mal-DM4 conjugate (antibody, mouse IgG2b, kappa, V domains shown)
VH: B3 VH
VL: B3 VL
modifications: DM4 linked through PEG4-mal; sites not given
B8: huFR1-21-PEG4-mal-DM4 (antibody, human IgG1, kappa, V domains shown)
VH: B4 VH
VL: B3 VL with Y10S, L15V, N42K, R45K, T80P, S100Q
modifications: maytansinoid DM4 attached through the PEG4-mal linker; residues and chain not stated
B9: huFR1-48 (antibody, human IgG1, kappa, V domains shown)
VH: QVQLVQSGAEVAKPGASVKLSCKASGYTFTNYWMQWIKQRPGQGLEWIGAIYPGNGDSRYTQKFQGKATLTADKSSSTAYMQVSSLTSEDSAVYYCARRDGNYAAYWGQGTLVTVSA
VL: DIQMTQSPSSLSVSVGERVTITCRASENIYSNLAWYQQKPGKSPKLLVYAATNLADGVPSRFSGSESGTDYSLKINSLQPEDFGSYYCQHFWASPYTFGQGTKLEIKR
B10: huFR1-49 (antibody, human IgG1, kappa, V domains shown)
VH: QVQLQQSGAVVAKPGASVKMSCKASGYTFTNYWMYWIKQRPGQGLELIGAIYPGNSDTTYNQKFQGKATLTAVTSANTVYMEVSSLTSEDSAVYYCTKRHDYGAMDYWGQGTSVTVSS
VL: B9 VL with S31T, A50T, T52S, E66G, S85T, A93V
B11: huFR1-57 (antibody, human IgG1, kappa, V domains shown)
VH: EVQLVESGGGLVQPGGSRRLSCAASGFTFSSFGMHWVRQAPGKGLEWVAYISSGSSTISYADSVKGRFTISRDNSKKTLLLQMTSLRAEDTAMYYCAREAYGSSMEYWGQGTLVTVSS
VL: EIVLTQSPATLSVTPGDRVSLSCRASQNINNNLHWYQQKPGQSPRLLIKYVSQSVSGIPDRFSGSGSGTDFTLSISSVEPEDFGMYFCQQSNSWPHYTFGQGTKLEIKR
B12: huFR1-65 (antibody, human IgG1, kappa, V domains shown)
VH: QVQLVQSGAEVAKPGASVKMSCKASGYTFTSYTMHWVKQRPGQGLAWIGYINPISGYTNYNQKFQGKATLTADKSSSTAYMQLNSLTSEDSAVYYCASGGAYGRKPMDYWGQGTSVTVSS
VL: EIVMTQSPATMSTSPGDRVSVTCKASQNVGPNVAWYQQKPGQSPRALIYSASYRYSGVPARFTGSGSGTDFTLTISNMQSEDLAEYFCQQYNSYPYTFGQGTKLEIKR

The binders below were run against T1, human folate receptor 1 (human, UniProt P15328 25-234) (assay: flow cytometry on FOLR1-expressing SKOV3 cells; apparent Kd from the fit of MFI against antibody concentration).
T1 construct: also called FOLR1; Folate Receptor-alpha
T1 sequence (P15328 25-234 limits assumed): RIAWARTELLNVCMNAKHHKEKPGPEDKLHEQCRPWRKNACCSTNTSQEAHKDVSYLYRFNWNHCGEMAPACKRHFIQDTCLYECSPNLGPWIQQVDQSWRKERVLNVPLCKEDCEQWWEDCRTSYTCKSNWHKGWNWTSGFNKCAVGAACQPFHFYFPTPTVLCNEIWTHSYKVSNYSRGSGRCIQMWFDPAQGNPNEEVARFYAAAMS
Description: Binding affinities of anti-FOLR1 antibodies and of their SPDB-DM4, PEG4Mal-DM4, SMCC-DM1, or anti-FOLR1-sulfo-SPDB-DM4 conjugates were assayed by Flow Cytometry. FOLR1-expressing SKOV3 cells were incubated with varying concentrations of anti-FOLR1 antibodies or their conjugates and processed as described above for flow cytometry analysis. Data analysis was performed using CellQuest Pro (BD Biosciences, San Diego, US) and for each sample the mean fluorescence intensity for FL1 (MFI) was exported and plotted against the antibody concentration in a semi-log plot. A dose-response curve was generated by non-linear regression and the value for the apparent equilibrium dissociation constant (Kd) of the test-samples for the binding to SKOV3 cells was calculated using GraphPad Prism v4 (GraphPad software, San Diego, Calif.) and presented in FIG. 5.

Row | Kd [pM] | Binder
1 | 70 | B1
2 | 130 | B2
3 | 70 | B3
4 | 70 | B4
5 | 660 | B5

These binders were tested against T1, human folate receptor 1 (assay: cell-based or functional assay).

Row | Binder | IC50, cytotoxic activity of the PEG4-mal-DM4 conjugate on KB cells, continuous exposure (WST-8 survival) [pM]
6 | B6 | 150
7 | B7 | 100
8 | B8 | 100

The binders below were run against T1, human folate receptor 1 (assay: apparent affinity, flow cytometry on FOLR1-expressing cells ('as described above'; cell line not named in Example 19, SKOV3 in Example 13)).

Row | Kd [pM] | Binder
9 | 60 | B1
10 | 130 | B9
11 | 80 | B10
12 | 140 | B11
13 | 150 | B12
